The results in this text go back to patent publication US20240003880A1 (published 2024).

Broadly, the Kd is the constant that tells how readily two partners part at equilibrium. Read a low Kd as tighter binding.

The assay deals with SARS-CoV-2 nucleocapsid phosphoprotein (SARS-CoV-2, UniProt P0DTC9 1-419). Put plainly: SPR. For orientation: Surface plasmon resonance follows binding to a sensor surface in real time, without labels.

B1: antibody 9-17 (antibody, V domains shown)
VH: QVQLVQSGAEVKKPGSSVKVSCKASGGTFSNYVISWVRQAPGQGLEWMGGIIPIFGTAKYAQKFQGRVAITADESTSTAYMEVSSLRSEDTAVYYCARAGYCSGGSCRRPSDYYGMDVWGQGTTVTVSS
VL: not shown
In the case of B1, the Kd was 180 pM.

B2: antibody 9-24 (antibody, V domains shown)
VH: EVQLVESGGGLVQPGGSLRLSCAASGFTFSDSAVHWVRQASGKGLEWVGRIRNRNNNYATAYAASVKGRFTISRDDSENMAYLQMNGLKTEDTAIYYCTDLLAYWGQGTLLTVSS
VL: SYELTQPPSVSVSPGQTARITCSADALPKQYAYWYQQKAGQAPVLVIYKDNERPSGIPERFSGSSSGTTVTLTISGVQAEDEADYYCQSADSSGGYRVFGGGTKLTVL
Take B2: the Kd was 2360 pM.

B3: antibody 9-15 (antibody, V domains shown)
VH: QVQLVQSGAEVKKPGSSVKVSCKASGGTFSSYAISWVRQAPGQGLEWMGGIIPIFGTANYAQKFQGRVTITAEESTSTAYMELSSLRSEDTAVYYCARDGWAAAGPDTSLLGTFDIWGQGTMVTVSS
VL: QSALTQPPSVSGSPGQSVTISCTGTSSDVGSYNRVSWYQQPPGTAPKLIIYEVSNRPSGVPDRFSGSKSGNTASLTISGLQAEDEADYYCSSYTSSSTYVVFGGGTKLTVL
B3 registered a Kd of 100 pM. Against the preceding molecule, the Kd is about 24-fold lower.

B4: antibody 9-11 (antibody, V domains shown)
VH: QVQLVQSGAEVKKPGASVKVSCKASGYTFTSYAISWVRQAPGQGLEWMGWISAYTGNTNYAQKLQGRVTMTTDTSTSTAYMELRSLRSDDTAVYYCARNGWDYDTSGTHDYWGQGTLVTVSS
VL: not shown
In the case of B4, the Kd is 80 pM. The Kd values of the last two molecules are within 1.5-fold of each other.
